Assay results reported in patent US20230272117A1 (published 2023).

What was measured:
C1.844.hu31 = assay: FACS cell binding
C1.844.hu41 = assay: FACS cell binding

B1: C6.hC1 (other)
chain: MALRGFCSADGSDPLWDWNVTWNTSNPDFTKCFQNTVLVWVPCFYLWACFPFYFLYLSRHDRGYIQMTPLNKTKTALGFLLWIVCWADLFYSFWERSRGIFLAPVFLVSPTLLGITMLLATFLIQLERRKGVQSSGIMLTFWLVALVCALAILRSKIMTALKEDAQVDLFRDITFYVYFSLLLIQLVLSCFSDRSPLFSETIHDPNPCPESSASFLSRITFWWITGLIVRGYRQPLEGSDLWSLNKEDTSEQVVPVLVKNWKKECAKTRKQPVKVVYSSKDPAQPKESSKVDANEEVEALIVKSPQKEWNPSLFKVLYKTFGPYFLMSFFFKAIHDLMMFSGPQILKLLIKFVNDTKAPDWQGYFYTVLLFVTACLQTLVLHQYFHICFVSGMRIKTAVIGAVYRKALVITNSARKSSTVGEIVNLMSVDAQRFMDLATYINMIWSAPLQVILALYLLWLNLGPSVLAGVAVMVLMVPVNAVMAMKTKTYQVAHMKSKDNRIKLMNEILNGIKVLKLYAWELAFKDKVLAIRQEELKVLKKSAYLSAVGTFTWVCTPFLVALCTFAVYVTIDENNILDAQTAFVSLALFNILRFPLNILPMVISSIVQASVSLKRLRIFLSHEELEPDSIERRPVKDGGGTNSITVRNATFTWARSDPPTLNGITFSIPEGALVAVVGQVGCGKSSLLSALLAEMDKVEGHVAIKGSVAYVPQQAWIQNDSLRENILFGCQLEEPYYRSVIQACALLPDLEILPSGDRTEIGEKGVNLSGGQKQRVSLARAVYSNADIYLFDDPLSAVDAHVGKHIFENVIGPKGMLKNKTRILVTHSMSYLPQVDVIIVMSGGKISEMGSYQELLARDGAFAEFLRTYASTEQEQDAEENGVTGVSGPGKEAKQMENGMLVTDSAGKQLQRQLSSSSSYSGDISRHHNSTAELQKAEAKKEETWKLMEADKAQTGQVKLSVYWDYMKAIGLFISFLSIFLFMCNHVSALASNYWLSLWTDDPIVNGTQEHTKVRLSVYGALGISQGIAVFGYSMAVSIGGILASRCLHVDLLHSILRSPMSFFERTPSGNLVNRFSKELDTVDSMIPEVIKMFMGSLFNVIGACIVILLATPIAAIIIPPLGLIYFFVQRFYVASSRQLKRLESVSRSPVYSHFNETLLGVSVIRAFEEQERFIHQSDLKVDENQKAYYPSIVANRWLAVRLECVGNCIVLFAALFAVISRHSLSAGLVGLSVSYSLQVTTYLNWLVRMSSEMETNIVAVERLKEYSETEKEAPWQIQETAPPSSWPQVGRVEFRNYCLRYREDLDFVLRHINVTINGGEKVGIVGRTGAGKSSLTLGLFRINESAEGEIIIDGINIAKIGLHDLRFKITIIPQDPVLFSGSLRMNLDPFSQYSDEEVWTSLELAHLKDFVSALPDKLDHECAEGGENLSVGQRQLVCLARALLRKTKILVLDEATAAVDLETDDLIQSTIRTQFEDCTVLTIAHRLNTIMDYTRVIVLDKGEIQEYGAPSDLLQQRGLFYSMAKDAGLV
Question: How did the Kd (C1.844.hu31) turn out when B1 was run?
Answer: The Kd was 518 nM.

Question: And the Kd (C1.844.hu41)?
Answer: The Kd was 94 nM.
